Measurements: US10253076B2, “Peptides and combination of peptides for use in immunotherapy against ovarian cancer and other cancers” (immatics biotechnologies GmbH, priority 2015, dated 2019)

Target: HLA-A*02:01 (Homo sapiens, UniProt P04439, D140Y/D185E/D98H/E176V/E277Q/G131W/G231S/I119V/I121R/I166T/I218V/L300P/L318F/N151K/N90K/P208A/P217A/Q86G/Q94H/R138H/R169H/T345S)
Experiment: MHC binding assay (UV-ligand exchange, beta2m ELISA, peptide exchange yield)
Details: binding of HLA-class I restricted peptides to HLA-A*02:01, ranged by peptide exchange yield (UV-ligand exchange, β2m ELISA)
Source text: Candidate peptides for T cell based therapies according to the present invention were further tested for their MHC binding capacity (affinity). The individual peptide-MHC complexes were produced by UV-ligand exchange, where a UV-sensitive peptide is cleaved upon UV-irradiation, and exchanged with the peptide of interest as analyzed. Only peptide candidates that can effectively bind and stabilize the peptide-receptive MHC molecules prevent dissociation of the MHC complexes. To determine the yield of the exchange reaction, an ELISA was performed based on the detection of the light chain (β2m) of stabilized MHC complexes. The assay was performed as generally described in Rodenko et al. (Rodenko et al., 2006).
96 well MAXISorp plates (NUNC) were coated over night with 2ug/ml streptavidin in PBS at room temperature, washed 4× and blocked for 1 h at 37° C. in 2% BSA containing blocking buffer. […] Peptide-MHC monomers of the UV-exchange reaction were diluted 100 fold in blocking buffer. Samples were incubated for 1 h at 37° C., washed four times, incubated with 2ug/ml HRP conjugated anti-82m for 1 h at 37° C., washed again and detected with TMB solution that is stopped with […]. Absorption was measured at 450 nm. Candidate peptides that show a high exchange yield (preferably higher than 50%, most preferred higher than 75%) are generally preferred for a generation and production of antibodies or fragments thereof, and/or T cell receptors or fragments thereof, as they show sufficient avidity to the MHC molecules and prevent dissociation of the MHC complexes.

| Peptide exchange | Substance |
| --- | --- |
| ″++″ (≥20% = ++) | 44 (ILDPISSGFLL; listed as Homo sapiens) [compound 44] |
| ″+++″ (≥50% = +++) | 45 (SLWQDIPDV; listed as Homo sapiens) [compound 45] |
| ″+++″ (≥50% = +++) | 46 (ILTEENIHL; listed as Homo sapiens) [compound 46] |
| ″++″ (≥20% = ++) | 47 (ILLSVPLLVV; listed as Homo sapiens) [compound 47] |
| ″+++″ (≥50% = +++) | 49 (YLPAVFEEV; listed as Homo sapiens) [compound 49] |
| ″+++″ (≥50% = +++) | 50 (SLSELEALM; listed as Homo sapiens) [compound 50] |
| ″++++″ (≥75% = ++++) | 51 (LLPDLEFYV; listed as Homo sapiens) [compound 51] |
| ″++++″ (≥75% = ++++) | 52 (FLLAHGLGFLL; listed as Homo sapiens) [compound 52] |
| ″++++″ (≥75% = ++++) | 53 (KMIETDILQKV; listed as Homo sapiens) [compound 53] |
| ″+++″ (≥50% = +++) | 54 (SLLEQGKEPWMV; listed as Homo sapiens) [compound 54] |
| ″++++″ (≥75% = ++++) | 55 (SLLDLETLSL; listed as Homo sapiens) [compound 55] |
| ″+++″ (≥50% = +++) | 57 (TLAELQPPVQL; listed as Homo sapiens) [compound 57] |
| ″+++″ (≥50% = +++) | 59 (IMEDIILTL; listed as Homo sapiens) [compound 59] |
| ″++++″ (≥75% = ++++) | 61 (FLQGYQLHL; listed as Homo sapiens) [compound 61] |
| ″++++″ (≥75% = ++++) | 62 (VLLDVSAGQLLM; listed as Homo sapiens) [compound 62] |
| ″++″ (≥20% = ++) | 63 (YLLPSGGSVTL; listed as Homo sapiens) [compound 63] |
| ″++″ (≥20% = ++) | 64 (YAAPGGLIGV; listed as Homo sapiens) [compound 64] |
| ″+++″ (≥50% = +++) | 66 (FLDENIGGVAV; listed as Homo sapiens) [compound 66] |
| ″+++″ (≥50% = +++) | 67 (TLLAEALVTV; listed as Homo sapiens) [compound 67] |
| ″++++″ (≥75% = ++++) | 68 (SLMELPRGLFL; listed as Homo sapiens) [compound 68] |
| ″+++″ (≥50% = +++) | 69 (FQLDPSSGVLVTV; listed as Homo sapiens) [compound 69] |
| ″+++″ (≥50% = +++) | 70 (GLLDYPVGV; listed as Homo sapiens) [compound 70] |
| ″+++″ (≥50% = +++) | 71 (GILARIASV; listed as Homo sapiens) [compound 71] |
| ″+++″ (≥50% = +++) | 72 (SLLELDGINL; listed as Homo sapiens) [compound 72] |

More lines, now with the values behind:

| Substance | Peptide exchange |
| --- | --- |
| 1 (SLMEPPAVLLL; listed as Homo sapiens) [compound 1] | ″+++″ (≥50% = +++) |
| 4 (GIMEHITKI; listed as Homo sapiens) [compound 4] | ″++++″ (≥75% = ++++) |
| 5 (HLTEVYPEL; listed as Homo sapiens) [compound 5] | ″+++″ (≥50% = +++) |
| 6 (VLVSDGVHSV; listed as Homo sapiens) [compound 6] | ″+++″ (≥50% = +++) |
| 7 (SLVGLLLYL; listed as Homo sapiens) [compound 7] | ″++++″ (≥75% = ++++) |
| 9 (GAAKDLPGV; listed as Homo sapiens) [compound 9] | ″++″ (≥20% = ++) |
| 10 (FLATFPLAAV; listed as Homo sapiens) [compound 10] | ″++++″ (≥75% = ++++) |
| 12 (SLWPDPMEV; listed as Homo sapiens) [compound 12] | ″+++″ (≥50% = +++) |
| 13 (YLMDESLNL; listed as Homo sapiens) [compound 13] | ″+++″ (≥50% = +++) |
| 14 (AAYGGLNEKSFV; listed as Homo sapiens) [compound 14] | ″+++″ (≥50% = +++) |
| 15 (VLLTFKIFL; listed as Homo sapiens) [compound 15] | ″++″ (≥20% = ++) |
| 16 (VLFQGQASL; listed as Homo sapiens) [compound 16] | ″+++″ (≥50% = +++) |
| 17 (GLLPGDRLVSV; listed as Homo sapiens) [compound 17] | ″+++″ (≥50% = +++) |
| 18 (YLVAKLVEV; listed as Homo sapiens) [compound 18] | ″++″ (≥20% = ++) |
| 19 (FMVDNEAIYDI; listed as Homo sapiens) [compound 19] | ″++++″ (≥75% = ++++) |
| 20 (RMIEYFIDV; listed as Homo sapiens) [compound 20] | ″+++″ (≥50% = +++) |
| 21 (VLDELDMEL; listed as Homo sapiens) [compound 21] | ″++″ (≥20% = ++) |
| 22 (IMEENPGIFAV; listed as Homo sapiens) [compound 22] | ″+++″ (≥50% = +++) |

| Substance | Peptide exchange |
| --- | --- |
| 23 (VLLDDIFAQL; listed as Homo sapiens) [compound 23] | ″+++″ (≥50% = +++) |
| 24 (SLSDGLEEV; listed as Homo sapiens) [compound 24] | ″++″ (≥20% = ++) |
| 25 (FLPDEPYIKV; listed as Homo sapiens) [compound 25] | ″+++″ (≥50% = +++) |
| 26 (ALLELAEEL; listed as Homo sapiens) [compound 26] | ″+++″ (≥50% = +++) |
| 27 (ILADIVISA; listed as Homo sapiens) [compound 27] | ″+++″ (≥50% = +++) |
| 28 (QLLDETSAITL; listed as Homo sapiens) [compound 28] | ″+++″ (≥50% = +++) |
| 29 (KMLGIPISNILMV; listed as Homo sapiens) [compound 29] | ″+++″ (≥50% = +++) |
| 30 (LILDWVPYI; listed as Homo sapiens) [compound 30] | ″+++″ (≥50% = +++) |
| 31 (YLAPELFVNV; listed as Homo sapiens) [compound 31] | ″++″ (≥20% = ++) |
| 32 (KLDDLTQDLTV; listed as Homo sapiens) [compound 32] | ″++″ (≥20% = ++) |
| 33 (VLLSLLEKV; listed as Homo sapiens) [compound 33] | ″++″ (≥20% = ++) |
| 34 (ILVEADSLWVV; listed as Homo sapiens) [compound 34] | ″+++″ (≥50% = +++) |
| 35 (KINDTIYEV; listed as Homo sapiens) [compound 35] | ″+++″ (≥50% = +++) |
| 39 (SVAPNLPAV; listed as Homo sapiens) [compound 39] | ″+++″ (≥50% = +++) |
| 40 (TLLVKVFSV; listed as Homo sapiens) [compound 40] | ″+++″ (≥50% = +++) |
| 41 (SLMPHIPGL; listed as Homo sapiens) [compound 41] | ″+++″ (≥50% = +++) |
| 42 (VLLQKIVSA; listed as Homo sapiens) [compound 42] | ″+++″ (≥50% = +++) |
| 43 (VLSSLEINI; listed as Homo sapiens) [compound 43] | ″++″ (≥20% = ++) |
